What was measured:
[1] = target: T1, Recombinant human Vti1a (human, UniProt Q96AJ9 1-217); test: pull-down
T1 sequence (looked up): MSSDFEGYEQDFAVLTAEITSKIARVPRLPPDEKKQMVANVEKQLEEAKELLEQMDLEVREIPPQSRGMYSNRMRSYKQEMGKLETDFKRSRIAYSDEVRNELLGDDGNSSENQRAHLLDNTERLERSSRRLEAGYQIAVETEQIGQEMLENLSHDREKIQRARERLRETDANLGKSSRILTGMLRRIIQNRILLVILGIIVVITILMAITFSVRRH

[2] = target: T2, Recombinant human Syntaxin6 (human, UniProt O43752 1-255); test: pull-down
T2 sequence: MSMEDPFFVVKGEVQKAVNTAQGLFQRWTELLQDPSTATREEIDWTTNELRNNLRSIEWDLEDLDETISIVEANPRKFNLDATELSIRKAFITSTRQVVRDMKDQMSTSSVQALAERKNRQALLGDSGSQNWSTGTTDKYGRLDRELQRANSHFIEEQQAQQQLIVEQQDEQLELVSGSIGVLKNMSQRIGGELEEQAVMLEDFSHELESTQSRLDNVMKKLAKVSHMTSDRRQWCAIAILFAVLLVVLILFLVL

binding result [1]: binds
binding result [2]: binds
B1: GST-VAMP4 (natural protein, human, UniProt O75379 1-141, looked up)
chain: MPPKFKRHLNDDDVTGSVKSERRNLLEDDSDEEEDFFLRGPSGPRFGPRNDKIKHVQNQVDEVIDVMQENITKVIERGERLDELQDKSESLSDNATAFSNRSKQLRRQMWWRGCKIKAIMALVAAILLLVIIILIVMKYRT

Source: paper doi:10.1101/2021.02.09.430442 (bioRxiv, 2021)
